Results on 21 sequences are retold here after the DeepSol protein solubility set.

This data set is described as follows: soluble on expression in E. coli; label from the status in PepcDB or PDB records.
As to “MTTAHFYCQYCTASLLGKKYVLKDDSPYCVTCYDRVFSNYCEECKKPIESDSKDLCYKDRHWHEGCFKCTKCNHSLVEKPFAAKDERLLCTECYSNECSSKCFHCKRTIMPGSRKMEFKGNYWHETCFVCENCRQPIGTKPLISKESGNYCVPCFEKEFAHYCNFCKKVITSGGITFCDQLWHKECFLCSDCRKDLCEEQFMSRDDYPFCMDCYNHLYANKCVACSKPISGLTGAKFICFQDSQWHSECFNCGKCSVSLVGKGFLTQNKEIFCQKCGSGMDTDI”, the “soluble on expression in E. coli” value is recorded as “soluble”.
Take “MSFASGCTPVSFDKLFEVSSGDKVSRENWGMIARPEPQHDSLKRRNTTSSIAKKKAKMTRGDEQITDETARKAATQLLDQIQDTPGRISLNFETPEAASVCPIPTSLNQIVNTKWTVNQLQEGQLTMLLAQDANKFKSLGVKNIKKGSVETQILPRQMDVKEIVEKLKKQDNDSDQFVGYAAAVANVLRRCDAETAQKITQAITATIEKEAPSIVNC”: the “soluble on expression in E. coli” value was “not soluble”.
“MVDKIIFTVTPIFSIPPRGAAAVETWMYQVAQRTNFPNRIVCIKNPGYSNYTFVNDNCSIHRVGFSRIYKRLFQKWTRLDPLPYSQRILNIAHDFPITKESVIVVHNSMKLYTQIRKRAPQARVVIHMHNAFEPKLLEQNVKMIVPSLYLKKYYQSYLANADIEIVPNGIDLETYQSNFQPITRSELNISPEEKIIFYAGRIVPDKGILLLMQSFEKLAAAHKNLKLVVIGDYTEMSKSDKGAYQRNVREIAKRLKDRCIMLGSIPPEKMHCYYPLADLVVIPSQFQEPFCMVAIEAMGAGKPVLVSTRGGMTEFVKENTTGFHLKEPMTADSISSDILKTLANPELTAVAKQGQDFVFDHYSWDGVTQRFEEVIHNWFE”: the “soluble on expression in E. coli” value is “not soluble”.
For the sequence “MAHHHHHHMYYADVDYEVPSRVVQLTDATFDTIVMDPTKDVFVLYCVTWSRHCRSAVKLWADLSISQFKRPTADTFVAALIDAEAFPETAKRMGVKSYPTMLFYTRLEKATPLEYNGQGLLPLLDSFVFQNS”, the “soluble on expression in E. coli” value is recorded as “not soluble”.
Consider “MAHHHHHHMEVAFTISPGERQHVEYLADLFAIILAIEKVEKATLRDIITQEQYSSTITRLLDKYKSTVTYLEQSRNPFYSTIDSFWENYGSRCPAARTRIQLSFDDAKQQQQQQQDSDVNGTVDPRLVLECGQHFITLMDSLKLQQTAVDQLYTLLADLVRGLQRLGVTDQSFFHRLTTWKEKFDTMNASDELSERDTREFAFVLECGYQAFHAYLSESSARRPKA”, for which the “soluble on expression in E. coli” value was “not soluble”.
Regarding “MSEDYADLHDPNAEYTMRELSAETMGADSGRPAPRDLEITDIQTTMVDGNFPWTLVRVYTDAGVVGTGEAYWGAGVPELIERMTPFVVGENPLDIDRLFEHLVQKMSGEGSVEGVTVTAISGIEVALHDLAGKVLGVPAYQLLGGKYRDEVRVYCDCHTAAEADPEACADEAERVVDDLGYDALKFDLDVPSGLEKDRANRHLRPGEIRHKADIVAAVTERVRDRADVAFDCHWTFSGGSAKRLAAELEAYDVWWLEDPVPPENLDVQASVTESTATPIAVGENRYRVTEARRLIENQAVDIVAPDLPKVGGMRETRKIADVANQYYVPVAMHNVASPVATMASAHVGAAIPNALAVEYHSYELGWWSDLVAEDVIEDGSIEVPERPGLGITLDMDAVEEHMVDGETLFDEA”, the “soluble on expression in E. coli” value was “soluble”.
Take “MSLLTEQQRRELDWEKTDGLMPVIVQHAVSGEVLMLGYMNPEALDKTLESGKVTFFSRTKQRLWTKGETPGNFLNVVSIAPDCDNDTLLVLANPIGPTCHKGTSSCFGDTAHQWLFLYQLEQLLAERKSADPETSYTAKLYASGTKRIAQKVGEEGVETALAATVHDRFELTNEASDLMYHLLVLLQDQGLDLTPVIENLRKRHQEGHHHHHH”: the “soluble on expression in E. coli” value is “soluble”.
On to “HMGARASVLSGGELDKWEKIRLRPGGKKQYKLKHIVWASRELERFAVNPGLLETSEGCRQILGQLQPSLQTGSEELRSLYNTIAVLYCVHQRIDVKDTKEALDKIEEEQNKSKKKAQQAAADTGNNSQVSQNY”, for which the “soluble on expression in E. coli” value is on record as “soluble”.
For “MAKEKTVYVCSNCGQESPKWVGKCPSCGEWNTYVEEIVRKETTNRRPVSGIETQKAKPVILSEIEADDEPRINMHDDELNRVLGGGLVPGSLVLIGGEPGIGKSTLVMQTVLRMPDKKILYVSGEESARQLKLRADRLSEVSSDCLIVCETSLEQIYVHIKNTSPDLVIIDSIQTISTENIESSPGSIAQVRECSASILRFAKETHTPVLLIGHINKEGSIAGPKVLEHIVDTVLQFEGDQHYMYRILRSIKNRFGSTAELGIYEMRQDGLRQVSNPSELLLSQDHEGMSGVAIASAIEGVRPFLIETQALVSSAVYGNPQRSATGFDIRRMNMLLAVLEKRVGFKLAQKDVFLNIAGGLKVNDPAIDLAVISAILSSNMDAAVEPEVCMAGEIGLSGEIRPVNRIEQRIGEAEKLGFKRFLLPKYNLQGIDTQKLKIELVPVRKVEEAFRALFG”, the “soluble on expression in E. coli” value is given as “not soluble”.
For “MGSDKIHHHHHHMNNLFDRIASRYVDGAEVFYGWMNMSLNQIKRAKKLGIKTIVECASSHPLYQLKILEEEYQKWNIPFKVGSQKIYLKALKEIKEADFIKIPSDFVQETFIKNGIPEEKLIKIPFGVDLEKFQPKDNYNNEIFRAVFVGTVSIRKGIPYLLKAWSELNLKDAQLYVVGAISPDVKIIIAKYSKLKNIIFTGRVKDIVPILRESNVFVFPSIEEGSALVTYEAMASGLPSIVTYNSGSIVRHGKDGFVIPIRDIKSLKDGIQYFYENPSEVKRMGKNARKHVEKYTWYNYGENLYNELKRLGLL”, the “soluble on expression in E. coli” value was “not soluble”.
Take “MGSDKIHHHHHHMNVENQTPNVDHQEIAKFEAIASRWWDLEGEFKPLHRINPLRLGYISQRAEGLFGKKVLDVGCGGGILAESMAREGADVTGLDMGAEPLQVARLHALESGVTVDYVQETVEAHADAHSGLYDVVTCMEMLEHVPDPQSVVQACAKLVKPGGHVFFSTINRNAKAWMMAVIGAEYILKMVPRGTHDIKKFIRPAELMRWVDDTPLRERHITGLHYNLLTDRFKLGPNVDVNYMLHTSHDKQC”: the “soluble on expression in E. coli” value is “not soluble”.
As to “MKCPFCAHPDTRVADSRLMEERNAVRRRRHCPNCGKRFGTLETAELKMPAVIGPDKKRSPFNAQRLRNDLTAAARKSALTPEQIDETVRLTEHRLYTSGQRDIPSAALADMVLKELLRQDTEAAVRFAALHKRFDNPADFASWLAQAVKTGGKA”, the “soluble on expression in E. coli” value is on record as “not soluble”.
For the sequence “MSLGQNRLELLLFRLDGQQLYGINVFKVREVLQCPQLTLMPKSSPVVCGVANIRGATIPILDLAMATGSGALKDKNSPFVIITEYNTKTQGFLVRSVERIVNMNWEEIHPPPKGTGRDHYLTAVTRVDNQLVEIIDVEKVLAEVAPTPEAISVGVVDVETQSKALSLRVLTVDDSSVARKQVTRCLQTVGVEVVALNDGRQALDYLRKLVDEGKKPEEEFLMMISDIEMPEMDGYTLTAEIRSDPRMQKLHIILHTSLSGVFNQAMVKKVGADDFLAKFRPDDLASRVVDRIKAADISEGHHHHHH”, the “soluble on expression in E. coli” value is “soluble”.
In the case of “MVMSIEASCHCGETVFEVTEAPSSVTRCTCSLCAKRGSLWAYYKPAQFRLLSPPENVTTYLWGSRTVKHHFCASCGCGTYSESPDWSTGKPDFDNPKVAVNARLFDDFDLDAVPVNMIDGKNLWLEHHHHHH”, the “soluble on expression in E. coli” value is on record as “soluble”.
Consider “AHHHHHHGSKYDVVVVGSGVAGPIVARDVAKAGFSVLLVDKKPAIGTPKQCAEGINVNVFKEFDIPYDKRFINREIYGARIYSPSGYTAELRYDKVSGVILERKVFDKMLAYYAAKAGADVWARTEVIDLLRKEGKIMGVKAKHEGELVEIEAKIIVAADGVESTVARLAGINTYAPPHEFDSAYEYEMIIEGYDPDLIHLWFGNEIAPRGYVWVFPKDEDRANVGIGINSDNEKTAKYYLDKWLKENNIPTKKILEINVGLVPVGGFVRELVKENVAVVGDAARQVNPVHGGGMYEAMKAANILAKWIVKALEEENLELLKNYTKEWWEVEGPKMERLLKLRRAMEKLTDEDIDVFVQLLGGTDLEKLAGGNYFEVVKALMKHPKVLMSKRRLEILKALL”, for which the “soluble on expression in E. coli” value was “soluble”.
For “MDIMNEKVKKIIEFMDKNSIDAVLIAKNPNVYYISGASPLAGGYILITGESATLYVPELEYEMAKEESNIPVEKFKKMDEFYKALEGIKSLGIESSLPYGFIEELKKKANIKEFKKVDDVIRDMRIIKSEKEIKIIEKACEIADKAVMAAIEEITEGKKEREVAAKVEYLMKMNGAEKPAFDTIIASGYRSALPHGVASDKRIERGDLVVIDLGALYQHYNSDITRTIVVGSPNEKQKEIYEIVLEAQKKAVESAKPGITAKELDSIARNIIAEYGYGEYFNHSLGHGVGLEVHEWPRVSQYDETVLREGMVITIEPGIYIPKIGGVRIEDTILITKNGSKRLTKTERELI”, the “soluble on expression in E. coli” value is “soluble”.
As to “MGSDKIHHHHHHESDLEQVTYSSENAIPSTLSSLNDNYILESKNASQEAFTLTWSHPDLGYQASVINSLEMDVKDKNFANKVILASSKTDVSHTITVSDLNSKIMALLKVYEMETAPIGIEFRISSSISAAADTLYSNIVSTTITPYEGEPEYPAITLRGSYNGWDFTKSQKVYSVNSDNIYAAMVYFDGKAADGWKFCGTEDWSTDNWGAPESMTPEQSPVTLVSGNGGDIKAYSKNSYYLEFNNTTGELKVSKPHNSWGIVGDHNSWGSGDTMMTLETETDENNKFQYYLKATLDMSAGNKWKIRPEEKWEDDIAPGAVEGEFEDAGDGNFKVSEAGNYTIKWYFNKVTPKIIVVKNK”, the “soluble on expression in E. coli” value is listed as “not soluble”.
Regarding “MGSDKIHHHHHHMGASFNQAGFVKRIFTSHGTTLFVDTSSGELRHGLMEYSPNNVLLTKDGKSAHIRFVDGPTDIVYFTEYSAISGSKRIDGIDALNLMPDNTLTIVDLPRNKFGLVQNGTFLSARSDGRITLSAPLCRGWENFHFRKDASEVSGVIVSHRIDGKIITFFIQDRTDIIQSILFGGDFYERDTLDLIRDRSTPGKVFVDIGANIGNHSIFMSKFCSPSEVIVFEPNPKAIEILKLNVLLNACANINTSYLGLALGSKAAQMRVFSPDPNNMGRAQMLDDDDGNVKCVAGDLLLQQKPVGLLKIDVEGSEFEVLRGMQGTIETWRPNILIEVWPQSQQDLFSWCDSFRYVVQETFPTDNNYFLAPIERQS”, the “soluble on expression in E. coli” value is “not soluble”.
For “MMKKALLIDDECWLRVQARDASADGRFVFAVRTTGVFCRPSCRSKRALRKNVRFFANAQQALDAGFRPCKRCQPDNARAQQRRLDKIACACRLLEQETPVTLAFLAQAVAMSPFHLHRLFKASTGMTPKGWQQAWRARRLREALAKGEPITAAIYRAGFPDSSSYYRHADQTLGMTAKQFRKGGDNVSVRYALTDWVYGRCLVAESERGICAILPGDSDDALLAELHTLFPSARHEPADALFQQRVRQVVAAINTRDVLLSLPLDIQGTAFQQQVWQALCAIPCGETVSYQQLAATIGKPTAVRAVASACGANKLAMVIPCHRVVRRDGALSGYRWGVRRKAQLLKREAQKEE”, the “soluble on expression in E. coli” value is given as “not soluble”.
In the case of “MHHHHHHSSGVDLGTENLYFQSMVKPAGPTVEQQGEMARSGGRMLATLEPEQRAEIIHHLADLLTDQRDEILLANKKDLEEAEGRLAAPLLKRLSLSTSKLNSLAIGLRQIAASSQDSVGRVLRRTRIAKNLELEQVTVPIGVLLVIFESRPDCLPQVAALAIASGNGLLLKGGKEAAHSNRILHLLTQEALSIHGVKEAVQLVNTREEVEDLCRLDKMIDLIIPRGSSQLVRDIQKAAKGIPVMGHSEGICHMYVDSEASVDKVTRLVRDSKCEYPAACNALETLLIHRDLLRTPLFDQIIDMLRVEQVKIHAGPKFASYLTFSPSEVKSLRTEYGDLELCIEVVDNVQDAIDHIHKYGSSHTDVIVTEDENTAEFFLQHVDSACVFWNASTRFSDGYRFGLGAEVGISTSRIHARGPVGLEGLLTTKWLLRGKDHVVSDFSEHGSLKYLHENLPIPQRNTN” it was “soluble”; in that of “MGENSLWNVYKTVSFWKVMKNFIIIQIARYTPCLSVKNWLYRTFLRMKVGKKTSFALMVMPDIMFPEKITVGENSIIGYNTTLLAHEYLIREYRLGEIVIGNEVMIGANVTILPGVKIGDGATVSAGTLVHRDVPSGAFVGGNPMRIIYTLEHHHHHH”, “soluble”.
